# Experimental data reported in doi:10.1101/2020.11.24.396648.
# Key:
# Assay in all cases: cryo-EM structure
# [1] = target: E. faecalis 70S ribosome (Enterococcus faecalis (endogenous in TX5332))
# [2] = target: L. monocytogenes 70S ribosome (Listeria monocytogenes (endogenous in EDG-e)) (UniProt B8DAY5)
# [3] = target: S. aureus 70S ribosome (Staphylococcus aureus (endogenous in SH1000)) (UniProt P48940)
# Chain of UniProt P48940 (P48940 whole entry, looked up): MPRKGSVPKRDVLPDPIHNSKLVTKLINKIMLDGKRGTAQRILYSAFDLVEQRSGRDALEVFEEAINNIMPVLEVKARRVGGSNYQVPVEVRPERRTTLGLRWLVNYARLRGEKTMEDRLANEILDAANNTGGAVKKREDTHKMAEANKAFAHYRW
substance,measurement,setting,value
"E. faecalis LsaA-EQ2-HTF (ATPase-deficient E142Q/E452Q, C-terminal His6-TEV-FLAG3 tag) (natural protein)",occupancy of the factor on the ribosome (percent of picked ribosomal particles),[1],> 95%
"L. monocytogenes VgaL-EQ2-HTF (Lmo0919, ATPase-deficient E104Q/E408Q, C-terminal His6-TEV-FLAG3 tag) (natural protein)",occupancy of the factor on the ribosome (percent of picked ribosomal particles),[2],70%
"S. haemolyticus VgaALC-EQ2-FLAG3 (ATPase-deficient E105Q/E410Q, C-terminal FLAG3 tag) (natural protein)",occupancy of the factor on the ribosome (percent of picked ribosomal particles),[3],60%
